According to paper PMC6854716, “Redesigning N-glycosylation sites in a GH3 β-xylosidase improves the enzymatic efficiency” (Biotechnology for Biofuels, 2019):

B1: BxlB (GH3 β-xylosidase): BxlBN1;5;7 (protein)
parent chain: MAVFKSWNLALLSSLFIPALCQSNYPDCTTGPLSELPICDTSLSPLERAKSLVSALTLEEKINNTGHEAAGSSRLGLPAYNWWNEALHGVAEKHGVSFEESGDFSYATSFPAPIVLGAAFNDALIRRVAEIISTEARAFSNSDHAGIDYWTPNVNPFKDPRWGRGQETPGEDPLHCSRYVKEFVGGLQGDDPEKPKVVATCKHLAAYDLEEWGGVSRFEFDAKVSAVDLLEYYLPPFKTCAVDASVGAFMCSYNALNGVPACADRYLLQTVLREHWGWEGPGHWVTGDCGAVERIQTYHHYVESGPEAAAAALNAGVDLDCGTWLPSYLGEAERQGLISNETLDAALTRLYTSLVQLGYFDPAEGQPLRSLGWDDVATSEAEELAKTVAIQGTVLLKNIDWTLPLKANGTLALIGPFINFTTELQSNYAGPAKHIPTMIEAAERLGYNVLTAPGTEVNSTSTDGFDDALAIAAEADALIFFGGIDNTVEEESLDRTRIDWPGNQEELILELAELGRPLTVVQFGGGQVDDSALLASAGVGAIVWAGYPSQAGGAGVFDVLTGKAAPAGRLPITQYPKSYVDEVPMTDMNLQPGTDNPGRTYRWYEDAVLPFGFGLHYTTFNVSWAKKAFGPYDAATLARGKNPSSNIVDTFSLAVTNTGDVASDYVALVFASAPELGAQPAPIKTLVGYSRASLIKPGETRKVDVEVTVAPLTRATEDGRVVLYPGEYTLLVDVNDEYPTAKFEIKGDVQVLEKFPLSGNDSD
B2: BxlB (GH3 β-xylosidase): BxlBN1 (protein)
parent chain: MAVFKSWNLALLSSLFIPALCQSNYPDCTTGPLSELPICDTSLSPLERAKSLVSALTLEEKINNTGHEAAGSSRLGLPAYNWWNEALHGVAEKHGVSFEESGDFSYATSFPAPIVLGAAFNDALIRRVAEIISTEARAFSNSDHAGIDYWTPNVNPFKDPRWGRGQETPGEDPLHCSRYVKEFVGGLQGDDPEKPKVVATCKHLAAYDLEEWGGVSRFEFDAKVSAVDLLEYYLPPFKTCAVDASVGAFMCSYNALNGVPACADRYLLQTVLREHWGWEGPGHWVTGDCGAVERIQTYHHYVESGPEAAAAALNAGVDLDCGTWLPSYLGEAERQGLISNETLDAALTRLYTSLVQLGYFDPAEGQPLRSLGWDDVATSEAEELAKTVAIQGTVLLKNIDWTLPLKANGTLALIGPFINFTTELQSNYAGPAKHIPTMIEAAERLGYNVLTAPGTEVNSTSTDGFDDALAIAAEADALIFFGGIDNTVEEESLDRTRIDWPGNQEELILELAELGRPLTVVQFGGGQVDDSALLASAGVGAIVWAGYPSQAGGAGVFDVLTGKAAPAGRLPITQYPKSYVDEVPMTDMNLQPGTDNPGRTYRWYEDAVLPFGFGLHYTTFNVSWAKKAFGPYDAATLARGKNPSSNIVDTFSLAVTNTGDVASDYVALVFASAPELGAQPAPIKTLVGYSRASLIKPGETRKVDVEVTVAPLTRATEDGRVVLYPGEYTLLVDVNDEYPTAKFEIKGDVQVLEKFPLSGNDSD
B3: BxlB (GH3 β-xylosidase): BxlBN5 (protein)
parent chain: MAVFKSWNLALLSSLFIPALCQSNYPDCTTGPLSELPICDTSLSPLERAKSLVSALTLEEKINNTGHEAAGSSRLGLPAYNWWNEALHGVAEKHGVSFEESGDFSYATSFPAPIVLGAAFNDALIRRVAEIISTEARAFSNSDHAGIDYWTPNVNPFKDPRWGRGQETPGEDPLHCSRYVKEFVGGLQGDDPEKPKVVATCKHLAAYDLEEWGGVSRFEFDAKVSAVDLLEYYLPPFKTCAVDASVGAFMCSYNALNGVPACADRYLLQTVLREHWGWEGPGHWVTGDCGAVERIQTYHHYVESGPEAAAAALNAGVDLDCGTWLPSYLGEAERQGLISNETLDAALTRLYTSLVQLGYFDPAEGQPLRSLGWDDVATSEAEELAKTVAIQGTVLLKNIDWTLPLKANGTLALIGPFINFTTELQSNYAGPAKHIPTMIEAAERLGYNVLTAPGTEVNSTSTDGFDDALAIAAEADALIFFGGIDNTVEEESLDRTRIDWPGNQEELILELAELGRPLTVVQFGGGQVDDSALLASAGVGAIVWAGYPSQAGGAGVFDVLTGKAAPAGRLPITQYPKSYVDEVPMTDMNLQPGTDNPGRTYRWYEDAVLPFGFGLHYTTFNVSWAKKAFGPYDAATLARGKNPSSNIVDTFSLAVTNTGDVASDYVALVFASAPELGAQPAPIKTLVGYSRASLIKPGETRKVDVEVTVAPLTRATEDGRVVLYPGEYTLLVDVNDEYPTAKFEIKGDVQVLEKFPLSGNDSD
B4: BxlB^wt (GH3 β-xylosidase BxlB) (Aspergillus nidulans FGSC A4) (protein)
chain: NYPDCTTGPLSELPICDTSLSPLERAKSLVSALTLEEKINNTGHEAAGSSRLGLPAYNWWNEALHGVAEKHGVSFEESGDFSYATSFPAPIVLGAAFNDALIRRVAEIISTEARAFSNSDHAGIDYWTPNVNPFKDPRWGRGQETPGEDPLHCSRYVKEFVGGLQGDDPEKPKVVATCKHLAAYDLEEWGGVSRFEFDAKVSAVDLLEYYLPPFKTCAVDASVGAFMCSYNALNGVPACADRYLLQTVLREHWGWEGPGHWVTGDCGAVERIQTYHHYVESGPEAAAAALNAGVDLDCGTWLPSYLGEAERQGLISNETLDAALTRLYTSLVQLGYFDPAEGQPLRSLGWDDVATSEAEELAKTVAIQGTVLLKNIDWTLPLKANGTLALIGPFINFTTELQSNYAGPAKHIPTMIEAAERLGYNVLTAPGTEVNSTSTDGFDDALAIAAEADALIFFGGIDNTVEEESLDRTRIDWPGNQEELILELAELGRPLTVVQFGGGQVDDSALLASAGVGAIVWAGYPSQAGGAGVFDVLTGKAAPAGRLPITQYPKSYVDEVPMTDMNLQPGTDNPGRTYRWYEDAVLPFGFGLHYTTFNVSWAKKAFGPYDAATLARGKNPSSNIVDTFSLAVTNTGDVASDYVALVFASAPELGAQPAPIKTLVGYSRASLIKPGETRKVDVEVTVAPLTRATEDGRVVLYPGEYTLLVDVNDEYPTAKFEIKGDVQVLEKFPLSGNDSD
notes: homologous secreted expression in A. nidulans A773 (pEXPYR, glaA promoter, A. niger glucoamylase signal peptide); purified by DEAE and Superdex 200; N-glycosylated at N63, N340, N408, N419, N458, N621, N760

Legend:
[1] = test system: O=[N+]([O-])c1ccc(O[C@@H]2OC[C@@H](O)[C@H](O)[C@H]2O)cc1; experiment: purified protein; assay type: biochemical, Aspergillus nidulans; settings: 0.05 M ammonium acetate pH 5.0, 60 °C, 1–20 mM substrate
[2] = ρNP-X activity of intracellular extract; settings: glycan lost; control: BxlBwt
[3] = far-UV CD secondary structure; settings: glycan lost; control: BxlBwt
[4] = CD thermal melt, 20-100 °C; settings: glycan lost; control: BxlBwt
[5] = Michaelis-Menten kinetics, purified enzyme, pH 5.0, 60 °C; settings: glycan lost; control: BxlBwt
[6] = western blot of crude extracellular extract, polyclonal anti-BxlB; settings: glycan lost; control: BxlBwt
purified protein = substrate: O=[N+]([O-])c1ccc(O[C@@H]2OC[C@@H](O)[C@H](O)[C@H]2O)cc1; experiment: purified protein; assay type: biochemical, Aspergillus nidulans; settings: 0.05 M ammonium acetate pH 5.0, 60 °C, 1–20 mM substrate; remark: listed apart in the source

Molecule | structure_or_conformation [3] | stability_or_folding, Tm [4] | enzymatic_activity, kcat_Km [5] | expression_or_secretion [6] | other results
BxlB^wt (GH3 β-xylosidase BxlB) (Aspergillus nidulans FGSC A4; N340Q/N408Q/N419Q/N458Q/N621Q/N760Q) | – | – | – | – | Km [1]: 2530 ± 230 µM; Vmax [1]: 9.49 µmol/min/mg; kcat [1]: 13 s⁻¹; kcat/Km [1]: 5130 M⁻¹ s⁻¹
B1 | no change | decreases, 61.6 vs 63.8 | increases, 9.51 vs 6.34, 50% higher catalytic efficiency as compared to the wild type | decreases | enzymatic_activity, fold_change [2]: increases
B2 | no change | decreases | decreases, 5.13 vs 6.34 | decreases | –
B3 | no change | decreases | decreases, 0.61 vs 6.34 | decreases | –
B4 | – | – | – | – | Km (purified protein): 2060 ± 130 µM; Vmax (purified protein): 9.55 µmol/min/mg; kcat (purified protein): 13.1 s⁻¹; kcat/Km (purified protein): 6340 M⁻¹ s⁻¹
